Reference: patent publication US20140304847

How the values were obtained:
[1] = system: ZFN-Rab38-L (artificial); test: cell_activity; details: with ZFN-Rab38-R; 3 of 52 mice from mRNA-injected zygotes with Rab38-cht vector, no NHEJ inhibition
[2] = system: ZFN-Rab38-R (artificial); test: cell_activity; details: with ZFN-Rab38-L; 3 of 52 mice from mRNA-injected zygotes with Rab38-cht vector, no NHEJ inhibition

Row | Sequence | activity (% targeted mice) [1] | activity (% targeted mice) [2]
1 | ATGCAGACACCTCACAAGGAGCACCTGTACAAGCTGCTGGTGATCGGCGACCTGGGTGTGGGCAAGACCAGCATTATCAAGCGCTATGTGCACCAAAACTTCTCCTCGCACTACCGGGCCACCATTGGTGTGGACTTCGCGCTGAAGGTGCTCCACTGGGACCCAGAGACGGTGGTGCGCTTGCAGCTCTGGGACATTGCTG (double strand) [Rab38 exon 1 ZFN-L half-site] | 5 | –
2 | ATGCAGACACCTCACAAGGAGCACCTGTACAAGCTGCTGGTGATCGGCGACCTGGGTGTGGGCAAGACCAGCATTATCAAGCGCTATGTGCACCAAAACTTCTCCTCGCACTACCGGGCCACCATTGGTGTGGACTTCGCGCTGAAGGTGCTCCACTGGGACCCAGAGACGGTGGTGCGCTTGCAGCTCTGGGACATTGCTG (double strand) [Rab38 exon 1 ZFN-R half-site] | – | 5
